In patent CN117430709A (KANGWEI ZHONGHE ZHONGSHAN BIOLOGICAL PHARMACEUTICAL CO LTD; …, dated 2024):

T1: BCMA on multiple myeloma cell lines RPMI8226 (low BCMA) and U266 (high BCMA) (human, UniProt Q02223 1-184)
T1 construct: whole, on cells; endogenous expression; also called CD269; TNFRSF17
T1 sequence (looked up): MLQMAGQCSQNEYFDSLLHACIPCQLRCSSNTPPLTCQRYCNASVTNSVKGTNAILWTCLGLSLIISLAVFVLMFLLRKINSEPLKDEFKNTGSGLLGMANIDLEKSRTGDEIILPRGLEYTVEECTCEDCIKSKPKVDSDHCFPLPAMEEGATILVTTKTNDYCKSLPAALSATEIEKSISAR


Target: T1, BCMA on multiple myeloma cell lines …
Test: flow cytometry on RPMI8226 cells (low BCMA), anti-his-FITC

Binder | binding result
NbBCMA-5 (VHH, Expressed in E. coli from PET30a(+); the supernatant of sonicated bacteria was used in flow cytometry; not shown: His tag from the PET30a(+) vector (detected with anti-his-FITC)) VHH: QVQLVETGGGLVQAGGSLRLSCAASGTIFSVYNMGWFRQAPGKQRELVAAITKNGSTSYKDSVKGRFTISTDNAKNTVDLRMSSLKLGDTAVYFCAAWDWDKNQAYWGQGTQVTVSS | binds
NbBCMA-8 (VHH, Expressed in E. coli from PET30a(+); the supernatant of sonicated bacteria was used in flow cytometry; not shown: His tag from the PET30a(+) vector (detected with anti-his-FITC)) VHH: QVQLVESGGGLVQAGGSLRLSCAASTRTFSSYVMAWFRQVPGKEREFVASRACSGGTPYYADSVKGRFFISRDDAKNTVYLRMNSLKPEDTAVYYCAAASIGATQYDYWGQGTQVIVSS | binds
